According to publication PMC5510750 (Immunity, 2017):

T1: IFN-λR1, soluble recombinant receptor (UniProt Q8IU57 21-226)
T1 sequence: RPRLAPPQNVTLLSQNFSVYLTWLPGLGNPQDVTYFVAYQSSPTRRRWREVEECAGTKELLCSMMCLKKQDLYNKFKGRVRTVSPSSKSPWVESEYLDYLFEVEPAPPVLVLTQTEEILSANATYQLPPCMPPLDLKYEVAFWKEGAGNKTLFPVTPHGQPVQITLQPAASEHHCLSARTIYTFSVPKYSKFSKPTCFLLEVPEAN

B1: IL-10Rβ, monomeric soluble receptor (receptor)
chain: MVPPPENVRMNSVNFKNILQWESPAFAKGNLTFTAQYLSYRIFQDKCMNTTLTECDFSSLSKYGDHTLRVRAEFADEHSDWVNITFCPVDDTIIGPPGMQVEVLADSLHMRFLAPKIENEYETWTMKNVYNSWTYNVQYWKNGTDEKFQITPQYDFEVLRNLEPWTTYCVQVRGFLPDRNKAGEWSEPVCEQTTHDETVPS
modifications: Alexa 647 label (in the yeast staining)
B2: H11/IFN-λR1 binary complex (complex)
chain 1: GSARGCHIAQFKSLSPRELQAFKRAKDALEESLLLKDCKCRSRLFPRTWDLRQLQVRERPVALEAELALTLKVLDATADTDPALGDVLDQPLHTLHHILSQLRACIQPQPTAGPRTRGRLHRWLHRLQEAPKKESPGCLEASVTFNLFRLLARDLNCVASGDLCEAAAHHHHHHHH
chain 2: T1 sequence
B3: IFN-λ3 H11, recombinant (designed binder)
chain: B2 chain 1
B4: Wild-type IFN-λ3, recombinant (ligand)
chain: VPVARLRGALPDARGCHIAQFKSLSPQELQAFKRAKDALEESLLLKDCKCRSRLFPRTWDLRQLQVRERPVALEAELALTLKVLEATADTDPALGDVLDQPLHTLHHILSQLRACIQPQPTAGPRTRGRLHHWLHRLQEAPKKESPGCLEASVTFNLFRLLTRDLNCVASGDLCV

How the values were obtained:
Experiment in all cases: SPR
[1] = target: B2
[2] = target: B1
[3] = target: T1, IFN-λR1, soluble recombinant receptor

Row | Kd [3] [nM] | Binder | also measured
1 |  | B1 | fold increase in affinity against the wild-type IFN-λ3/IFN-λR1 binary complex [1]: 30 fold
2 |  | B2 | Kd [2]: 560 nM
3 | ~150 | B3 | 
4 | ~850 | B4 | 
